Test results from publication PMC12090352, “Strigolactones enhance apple drought resistance via the MsABI5-MsSMXL1-MsNAC022 cascade”.

Biological target: T1, MsABI5 (Malus sieversii, UniProt A0A498IDK6 1-328+A0A540LD52:305-441, internal_change)
T1 sequence: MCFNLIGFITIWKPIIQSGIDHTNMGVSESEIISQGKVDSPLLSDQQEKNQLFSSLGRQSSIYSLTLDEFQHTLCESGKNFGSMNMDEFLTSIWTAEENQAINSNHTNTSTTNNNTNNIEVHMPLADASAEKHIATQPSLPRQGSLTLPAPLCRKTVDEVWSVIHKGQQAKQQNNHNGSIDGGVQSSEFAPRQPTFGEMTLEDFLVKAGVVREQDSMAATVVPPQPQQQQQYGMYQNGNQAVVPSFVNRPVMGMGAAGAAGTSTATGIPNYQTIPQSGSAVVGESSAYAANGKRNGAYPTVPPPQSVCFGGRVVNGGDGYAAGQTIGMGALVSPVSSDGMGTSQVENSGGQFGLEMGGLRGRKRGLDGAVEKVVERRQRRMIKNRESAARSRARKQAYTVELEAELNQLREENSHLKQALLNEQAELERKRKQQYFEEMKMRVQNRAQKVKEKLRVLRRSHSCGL
Experiment: EMSA; EMSA per manufacturer's instructions (Beyotime); buffer, salt, pH and temperature not stated
Conditions: protein: recombinant; tags: MBP (pMAL-C2X); chain copies: 2; blunt

B1: MsSMXL1 promoter P3 ACE probe (dsDNA)
DNA 1: ATGTTGATTAACGTACCACTTAGTAC
DNA 2: GTACTAAGTGGTACGTTAATCAACAT
binding result: binds

B2: MsP5CS2.2 promoter ABRE probe (dsDNA)
DNA 1: AGAAACCGACACGTCTCTCTTTTCTA
DNA 2: TAGAAAAGAGAGACGTGTCGGTTTCT
binding result: binds
